Measurements as given in US20170190787A1 (INSERM INSTITUT NATIONAL DE LA SANT ET DE LA RECHERCHE M …, published 2017).

Tests used:
[1] = target: T1, wild type EGFR on cells (A431 cells; HEK293T or NIH/3T3 cells transfected with wild type ErbB1) (UniProt P00533 25-1210, limits assumed); assay: cell-based or functional assay
[2] = target: T2, EGFR fused to SNAP-tag, expressed on transfected HEK293T cells (UniProt P00533 25-1210, terbium cryptate donor fluorochrome (SNAP-Tb) covalently on the SNAP-tag); assay: HTRF on living cells; comparison value for monovalent D10
T2 construct: whole, on cells; also called EGFR-ST; ErbB1-ST; not shown: SNAP-tag and FLAG tag (Cisbio plasmid)

[3] = target: T3, ErbB4 fused to HALO-Tag, expressed on transfected HEK293T cells (UniProt Q15303 26-1308, donor fluorochrome covalently on the HALO-Tag); assay: HTRF on transfected HEK293T cells, anti-His-d2 detection
T3 construct: whole, on cells; also called ErbB4-HT; not shown: HALO-Tag and c-myc tag
T3 sequence (Q15303 26-1308): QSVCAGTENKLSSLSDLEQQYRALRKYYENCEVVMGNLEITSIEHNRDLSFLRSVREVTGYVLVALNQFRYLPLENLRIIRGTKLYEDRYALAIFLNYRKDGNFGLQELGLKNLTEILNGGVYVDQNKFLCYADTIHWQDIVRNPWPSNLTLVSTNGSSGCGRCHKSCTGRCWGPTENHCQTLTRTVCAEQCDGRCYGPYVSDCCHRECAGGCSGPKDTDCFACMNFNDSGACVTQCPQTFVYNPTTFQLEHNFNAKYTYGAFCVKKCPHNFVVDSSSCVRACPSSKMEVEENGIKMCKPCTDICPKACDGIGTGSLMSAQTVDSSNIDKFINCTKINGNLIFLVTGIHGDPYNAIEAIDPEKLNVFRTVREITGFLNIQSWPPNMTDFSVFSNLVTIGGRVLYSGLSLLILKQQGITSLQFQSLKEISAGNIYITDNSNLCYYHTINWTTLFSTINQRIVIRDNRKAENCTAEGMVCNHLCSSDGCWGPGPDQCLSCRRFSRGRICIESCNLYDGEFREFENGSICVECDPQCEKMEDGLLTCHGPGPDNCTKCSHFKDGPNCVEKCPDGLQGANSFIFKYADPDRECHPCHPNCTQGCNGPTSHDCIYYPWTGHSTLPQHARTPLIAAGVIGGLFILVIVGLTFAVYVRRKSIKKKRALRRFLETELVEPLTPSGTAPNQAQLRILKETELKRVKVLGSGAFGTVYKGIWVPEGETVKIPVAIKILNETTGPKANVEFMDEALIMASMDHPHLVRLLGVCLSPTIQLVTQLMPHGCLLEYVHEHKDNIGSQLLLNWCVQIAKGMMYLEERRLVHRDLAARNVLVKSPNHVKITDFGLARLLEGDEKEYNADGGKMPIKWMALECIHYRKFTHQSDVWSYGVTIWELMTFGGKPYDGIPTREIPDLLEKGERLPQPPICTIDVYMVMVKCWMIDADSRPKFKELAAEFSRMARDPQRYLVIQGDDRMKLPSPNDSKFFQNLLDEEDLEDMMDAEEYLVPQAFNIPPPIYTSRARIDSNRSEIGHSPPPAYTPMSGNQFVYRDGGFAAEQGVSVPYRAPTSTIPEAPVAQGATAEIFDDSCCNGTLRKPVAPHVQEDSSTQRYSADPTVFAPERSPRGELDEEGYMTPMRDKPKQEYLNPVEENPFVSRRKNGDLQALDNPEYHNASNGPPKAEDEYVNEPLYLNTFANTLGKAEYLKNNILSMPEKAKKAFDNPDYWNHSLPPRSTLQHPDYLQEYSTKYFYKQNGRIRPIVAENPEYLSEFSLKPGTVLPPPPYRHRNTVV

[4] = target: T4, ErbB2 fused to SNAP-tag, expressed on transfected HEK293T cells (UniProt P04626 23-1255, donor fluorochrome covalently on the SNAP-tag); assay: as above
T4 construct: whole, on cells; also called ErbB2-ST; not shown: SNAP-tag and FLAG tag

[5] = target: T5, ErbB3 fused to SNAP-tag, expressed on transfected HEK293T cells (UniProt P21860 20-1342, donor fluorochrome covalently on the SNAP-tag); assay: as above
T5 construct: whole, on cells; also called ErbB3-ST; not shown: SNAP-tag and FLAG tag

[6] = target: T2, EGFR fused to SNAP-tag, expressed on …; assay: HTRF on EGFR-ST transfected HEK293T cells, sdAb detected with anti-His-d2; apparent Kd
[7] = target: T2, EGFR fused to SNAP-tag, expressed on …; assay: KD in the presence of Ab-3 as competitor; method not stated for Table 3
[8] = target: T2, EGFR fused to SNAP-tag, expressed on …; assay: KD in the presence of m425 as competitor; method not stated for Table 3
[9] = target: T2, EGFR fused to SNAP-tag, expressed on …; assay: HTRF on EGFR-ST cells; KD in the presence of irrelevant sdAb as competitor
[10] = target: T2, EGFR fused to SNAP-tag, expressed on …; assay: HTRF on EGFR-ST cells; KD in the presence of E10 as competitor
[11] = target: T2, EGFR fused to SNAP-tag, expressed on …; assay: HTRF on EGFR-ST transfected HEK293T cells, directly d2-labeled sdAb; apparent Kd
[12] = target: T2, EGFR fused to SNAP-tag, expressed on …; assay: HTRF on EGFR-ST cells; KD in the presence of G10 as competitor
[13] = target: T6, wild type EGFR on cells in the presence of EGF (ligand-activated, extended conformation) (UniProt P00533 25-1210; P01133 971-1023); assay: flow cytometry on A431 cells, d2-labeled sdAb with excess EGF
T6 construct: Receptor-ligand complex as the target: EGFR with EGF added to the cells; also called extended EGFR

[14] = target: T2, EGFR fused to SNAP-tag, expressed on …; assay: KD in the presence of cetuximab as competitor; method not stated for Table 3
[15] = target: T2, EGFR fused to SNAP-tag, expressed on …; assay: KD in the presence of panitumumab as competitor; method not stated for Table 3
[16] = target: T2, EGFR fused to SNAP-tag, expressed on …; assay: KD in the presence of irrelevant sdAb as competitor; method not stated for Table 3 (values of this column equal Table 2, HTRF on EGFR-ST)
[17] = target: T1, wild type EGFR on cells (A431 cells; …); assay: flow cytometry on A431 cells, d2-labeled sdAb with large excess of cetuximab
[18] = target: T2, EGFR fused to SNAP-tag, expressed on …; assay: HTRF on EGFR-ST cells; KD in the presence of D10 as competitor
[19] = target: T2, EGFR fused to SNAP-tag, expressed on …; assay: KD in the presence of irrelevant sdAb as competitor; method not stated for Table 3
[20] = target: T6, wild type EGFR on cells in the presence …; assay: flow cytometry on A431 cells, G10-d2 in the presence of EGF

B1: biparatopic single domain antibody D4E (D10 - 4x(G4S) linker - E10) (bispecific antibody)
chain: EVQLQESGGGLVQAGGSLRLSCAVSISRTIFSLYAMEWYRQPPGKQRDLVARIYRSGDTNYADSVKGRFTISRDNAKNTVYLQMNSLKPEDTGVYYCNSPAQDWPWGQGTQVTVSSAAAGGGGSGGGGSGGGGSGGGGSMAQVQLQESGGGLAQAGGSLRLSCAASGRTLSSYDMGWFRQAPGKEREFVTAINWGDLSTYYADSVKGRFTISRDNAKNTVYLQMNSLKPEDTAVYYCAARLRYTVSDPIFSRPDRYNYWGQGTQVTVSSAAAEQKLISEEDLNGAAHHHHHHGS
notes: also called bisdAb D4E
In the case of B1, the “inhibition of EGF-induced EGFR phosphorylation (FIG. 11); concentration against that of cetuximab” value [1] is reported as 100 fold.

B2: anti-EGFR single domain antibody D10 (VHH, not shown: small tags and cut ends)
VHH: EVQLVESGGGLVQAGGSLRLSCAVSISRTIFSLYAMEWYRQPPGKQRDLVARIYRSGDTNYADSVKGRFTISRDNAKNTVYLQMNSLKPEDTGVYYCNSPAQDWPWGQGTQVTVSS
notes: Llama VHH produced in E. coli, His-tagged; also called sdAb D10; unlabeled D10
With B2 the Kd [2] was 6 nM, the binding result [3] was “no binding” and the binding result [4] was “no binding”. For the same binder, the binding result [5] was “no binding” and the Kd [6] was 7 nM.

B3: d2-labeled anti-EGFR single domain antibody D10 (VHH)
VHH: B2 VHH
modifications: d2 fluorochrome (d2-NHS) on lysine residues, positions not given
notes: D10 chemically coupled to the acceptor fluorochrome d2 by NHS chemistry; also called D10-d2; d2-labeled clone D10; not shown: His tag
B3 was tested, and the Kd [7] was 3 nM, the Kd [8] was 14 nM and the Kd [9] was 7 nM. The Kd [10] was 11 nM, the Kd [11] was 27 nM and the Kd [12] was 7 nM. For the same binder, the binding result [13] was “no binding”, the Kd [14] was 10 nM and the Kd [15] was 13 nM. It also gave a Kd [16] of 7 nM.

B4: d2-labeled anti-EGFR single domain antibody E10 (VHH)
VHH: QVQLQESGGGLAQAGGSLRLSCAASGRTLSSYDMGWFRQAPGKEREFVTAINWGDLSTYYADSVKGRFTISRDNAKNTVYLQMNSLKPEDTAVYYCAARLRYTVSDPIFSRPDRYNYWGQGTQVTVSS
modifications: d2 fluorochrome (d2-NHS) on lysine residues, positions not given
notes: E10 chemically coupled to the acceptor fluorochrome d2 by NHS chemistry; also called E10-d2; E10-D2; not shown: His tag
In the case of B4, the Kd [7] is reported as 67 nM, the “fold increase of binding in the presence of cetuximab” value [17] is reported as 2 fold and the Kd [9] is reported as 20 nM. The Kd [11] was 106 nM, the Kd [12] was 17 nM and the Kd [18] was 17 nM. The binding result [13] was “no binding”, the Kd [14] was 11 nM and the Kd [15] was 70 nM. For the same binder, the Kd [19] was 20 nM.

B5: anti-EGFR single domain antibody E10 (VHH, not shown: small tags and cut ends)
VHH: B4 VHH
notes: Llama VHH produced in E. coli, His-tagged; also called sdAb E10; unlabeled E10
B5: no binding [3]; no binding [4]; no binding [5]. It also gave a Kd [6] of 25 nM.

B6: d2-labeled anti-EGFR single domain antibody G10 (VHH)
VHH: EVQLVESGGGLVQAGGSLRLSCAASGRTFSNYAMGWFRQAPGKEREFVAGIIWSGSRTYYADPVKGRFTISRDNAKNTVYLQMNSLNVEDTAVYYCAASMGDYDVSLASPRSWGKGTQVTVSS
modifications: d2 fluorochrome (d2-NHS) on lysine residues, positions not given
notes: G10 chemically coupled to the acceptor fluorochrome d2 by NHS chemistry; also called G10-d2; d2-labeled clone G10; not shown: His tag
For B6, the Kd [8] was 32 nM, the Kd [9] was 12 nM and the “fold increase of affinity against EGFR without EGF” value [20] was 8 fold. For the same binder, the Kd [10] was 17 nM, the Kd [11] was 87 nM and the Kd [18] was 6 nM. The Kd [14] was 21 nM, the Kd [15] was 27 nM and the Kd [19] was 12 nM.

B7: anti-EGFR single domain antibody G10 (VHH, not shown: small tags and cut ends)
VHH: B6 VHH
notes: Llama VHH produced in E. coli, His-tagged; also called sdAb G10; unlabeled G10
B7: no binding [3]; no binding [4]; no binding [5]. The Kd [6] was 15 nM.
